The data set concerns the target p53, P04637.

Chain of p53, P04637 (P04637 whole entry, looked up): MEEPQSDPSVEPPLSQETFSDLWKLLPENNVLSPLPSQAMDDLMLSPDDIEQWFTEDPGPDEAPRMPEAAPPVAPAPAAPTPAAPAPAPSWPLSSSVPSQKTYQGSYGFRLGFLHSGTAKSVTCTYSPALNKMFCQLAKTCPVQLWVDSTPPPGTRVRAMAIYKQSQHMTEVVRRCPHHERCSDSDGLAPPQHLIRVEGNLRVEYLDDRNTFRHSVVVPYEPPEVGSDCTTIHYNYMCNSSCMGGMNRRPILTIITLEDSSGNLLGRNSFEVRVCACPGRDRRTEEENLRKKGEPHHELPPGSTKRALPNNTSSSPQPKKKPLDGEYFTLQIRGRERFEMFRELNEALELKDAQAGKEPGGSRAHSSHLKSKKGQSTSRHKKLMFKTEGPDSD

B1: recombinant PP5 (protein phosphatase 5) (protein)
chain: MAMAEGERTECAEPPRDEPPADGALKRAEELKTQANDYFKAKDYENAIKFYSQAIELNPSNAIYYGNRSLAYLRTECYGYALGDATRAIELDKKYIKGYYRRAASNMALGKFRAALRDYETVVKVKPHDKDAKMKYQECNKIVKQKAFERAIAGDEHKRSVVDSLDIESMTIEDEYSGPKLEDGKVTISFMKELMQWYKDQKKLHRKCAYQILVQVKEVLSKLSTLVETTLKETEKITVCGDTHGQFYDLLNIFELNGLPSETNPYIFNGDFVDRGSFSVEVILTLFGFKLLYPDHFHLLRGNHETDNMNQIYGFEGEVKAKYTAQMYELFSEVFEWLPLAQCINGKVLIMHGGLFSEDGVTLDDIRKIERNRQPPDSGPMCDLLWSDPQPQNGRSISKRGVSCQFGPDVTKAFLEENNLDYIIRSHEVKAEGYEVAHGGRCVTVFSAPNYCDQMGNKASYIHLQGSDLRPQFHQFTAVPHPNVKPMAYANTLLQLGMM
As to B1, the “dephosphorylation of p53 in vitro” value was “recombinant PP5 can dephosphorylate p53 in vitro”.

Values taken from patent US7332335.
